This passage reports Kd and fold reduction of binding affinity against wild type results from publication PMC4558366.

The Kd is the constant that tells how readily two partners part at equilibrium. Lower therefore signals a tighter complex.

Test in all cases: ITC
In experiment [1] the target is T1, UHRF1_(SRA-RING) (residues 419-806) (human), Q96T88.
T1 chain: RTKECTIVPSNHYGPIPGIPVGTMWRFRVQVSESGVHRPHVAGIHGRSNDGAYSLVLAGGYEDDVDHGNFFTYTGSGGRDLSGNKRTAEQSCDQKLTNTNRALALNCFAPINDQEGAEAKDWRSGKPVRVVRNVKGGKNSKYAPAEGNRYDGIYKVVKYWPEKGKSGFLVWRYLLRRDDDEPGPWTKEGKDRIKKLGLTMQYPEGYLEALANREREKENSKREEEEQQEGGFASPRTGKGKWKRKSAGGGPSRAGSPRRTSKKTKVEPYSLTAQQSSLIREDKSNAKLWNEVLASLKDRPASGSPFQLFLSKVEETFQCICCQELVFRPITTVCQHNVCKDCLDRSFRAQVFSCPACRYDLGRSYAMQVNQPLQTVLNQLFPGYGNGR

Experiment [2] deals with T2, UHRF1_(647-678) (human), Q96T88.
T2 chain: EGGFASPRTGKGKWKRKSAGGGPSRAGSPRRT

Experiment [3] addresses T3, UHRF1_(TTD-RING) (residues 138-806) (human), Q96T88.
T3 chain: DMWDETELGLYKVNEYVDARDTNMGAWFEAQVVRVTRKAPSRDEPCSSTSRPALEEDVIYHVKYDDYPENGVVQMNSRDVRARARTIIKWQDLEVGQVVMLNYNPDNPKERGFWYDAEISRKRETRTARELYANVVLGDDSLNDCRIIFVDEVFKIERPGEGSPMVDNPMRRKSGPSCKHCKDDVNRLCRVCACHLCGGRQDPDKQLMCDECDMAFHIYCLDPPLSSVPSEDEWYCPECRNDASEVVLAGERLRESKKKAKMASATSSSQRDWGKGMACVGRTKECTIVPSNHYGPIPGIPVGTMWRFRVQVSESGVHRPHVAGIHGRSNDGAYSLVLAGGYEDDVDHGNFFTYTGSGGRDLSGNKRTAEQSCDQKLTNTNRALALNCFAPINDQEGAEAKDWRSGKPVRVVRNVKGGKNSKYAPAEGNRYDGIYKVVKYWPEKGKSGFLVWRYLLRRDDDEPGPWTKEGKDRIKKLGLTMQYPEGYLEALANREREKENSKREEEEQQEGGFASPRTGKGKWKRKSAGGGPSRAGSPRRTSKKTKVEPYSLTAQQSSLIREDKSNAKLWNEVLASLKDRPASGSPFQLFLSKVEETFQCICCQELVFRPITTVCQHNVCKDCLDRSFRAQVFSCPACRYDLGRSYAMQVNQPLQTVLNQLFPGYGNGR

The target of experiment [4] is T4, UHRF1_(647-687) K659E (human), Q96T88.
T4 chain: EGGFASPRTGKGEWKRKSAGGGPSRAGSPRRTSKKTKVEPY

Experiment [5] addresses T5, UHRF1_(600-687) (human), Q96T88.
T5 chain: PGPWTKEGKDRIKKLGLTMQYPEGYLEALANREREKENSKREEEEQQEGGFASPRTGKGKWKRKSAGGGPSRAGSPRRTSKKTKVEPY

B1: USP7 UBL1-2 (first two UBL domains of USP7) (domain or fragment)
chain: EAHLYMQVQIVAEDQFCGHQGNDMYDEEKVKYTVFKVLKNSSLAEFVQSLSQTMGFPQDQIRLWPMQARSNGTKRPAMLDNEADGNKTMIELSDNENPWTIFLETVDPELAASGATLPKFDKDHDVMLFLKMYDPKTRSLNYCGHIYTPISCKIRDLLPVMCDRAGFIQDTSLILYEEVKPNLTERIQDYDVSLDKALDELMDGDIIVFQKDDPENDNSELPTAKEYFRDLYH
modifications: not checked
In the case of B1, the Kd is 1300 nM in experiment [1], 1520 nM in experiment [2], 27200 nM in experiment [3] and 1420 nM in experiment [5]. Further, the fold reduction of binding affinity against wild type in experiment [4] was 38 fold.
